# Measured values from patent publication US5082772A, “Process for preparing deacetylcephalosporin C” (priority 1988, dated 1992).
# “And” between values parts separate entries of the source, which are not always exact repeats. Equal values may be shown once.
# B1: purified native enzyme: DAOC synthase obtained from cell-free extracts of S. clavuligerus (protein, UniProt P18548 1-311, looked up)
# Deacetoxycephalosporin C …: MDTTVPTFSLAELQQGLHQDEFRRCLRDKGLFYLTDCGLTDTELKSAKDLVIDFFEHGSEAEKRAVTSPVPTMRRGFTGLESESTAQITNTGSYSDYSMCYSMGTADNLFPSGDFERIWTQYFDRQYTASRAVAREVLRATGTEPDGGVEAFLDCEPLLRFRYFPQVPEHRSAEEQPLRMAPHYDLSMVTLIQQTPCANGFVSLQAEVGGAFTDLPYRPDAVLVFCGAIATLVTGGQVKAPRHHVAAPRRDQIAGSSRTSSVFFLRPNADFTFSVPLARECGFDVSLDGETATFQDWIGGNYVNIRRTSKA
# B2: purified enzyme: purified deacetoxycephalosporin C synthase of S. clavuligerus (protein, UniProt P18548 1-311, looked up)
# Deacetoxycephalosporin C …: B1 Deacetoxycephalosporin C …
# B3: recombinant synthase: S. clavuligerus DAOC synthase (expandase) produced in recombinant E. coli and purified (protein, UniProt P18548 1-311, looked up)
# Deacetoxycephalosporin C …: B1 Deacetoxycephalosporin C …
# modifications: recombinant, expressed in E. coli
# notes: S. clavuligerus DAOC synthase (expandase) produced in recombinant E. coli and purified
# Columns and labels:
# [1] = Stability (half-life) of native enzyme; format: physicochemical, Streptomyces clavuligerus
# Description: The purified native enzyme obtained from cell-free extracts of S. clavuligerus can be partially stabilized by phenylmethylsulfonyl fluoride and ethanol.
# [2] = Isoelectric points of purified enzyme; format: physicochemical, Streptomyces clavuligerus; conditions: two distinct points
# [3] = biological target: T1, recombinantly produced DAOC synthase (Streptomyces clavuligerus, UniProt P18548); assay: Kinetics of recombinant enzyme (Lineweaver-Burk); format: biochemical; conditions: pH 7.0, 50 mM HEPES buffer, 36° C.
# T1 construct: made in house; host or cells: Escherichia coli K12 JM109 (plasmid pOW382)
# Protocol: The kinetics of the native enzyme and recombinant enzyme were determined under the optimal reaction conditions for the enzyme, i.e., at pH 7.0 in 50 mM HEPES buffer at 36° C.
molecule,measurement,setting,value
B1,half-life,[1]; not stabilized,20 h
same,half-life,[1]; stabilized by phenylmethylsulfonyl fluoride and ethanol,48 h
B2,isoelectric points,[2],5.3±0.2 and 6.1±0.2
B3,Vmax,[3],0.432 μmol DAOC formed/min/mg protein
